Molecular target: EGFR (UniProt P00533 25-1210)
Experiment: SPR; printed as pKD […]

Kd: 0.126 nM
B1: aEGFR-R1-1 (antibody, V domains shown)
VH: EVKLQQSGDETMRPGASVRMSCKAYGYTFTDYSMHWIRQRPGQGLEWIGIIIPLIDTTRYNQKFKGKATLTADTSSDTAYMELSRLTFEDSAVYYCARSYDPSGDDWFAYWGQGTLVTVSS
VL: DTVLTQSPALSVSPGERVDISCRASESVSTLLHWYQQKPGQQPTLLISLASSLESGVPARFSGSGSGTDFTLTIDPVEADDTAIYYCQESWNEPYAFGAGTKLELK
